According to patent publication US6869778 (Scripps Research, dated 2005):

Each binder was assayed against plasminogen activator inhibitor, type 1 (PAI-1) (UniProt P05121 24-402) (assay: enzyme preincubated with PAI-1 under pseudo-first order conditions at 23 degrees Celsius; residual activity read in indirect chromogenic assay).
Protocol: Second order rate constants for the inhibition of wild type human t-PA and variant t-PA were measured under pseudo-first order conditions as previously described. Briefly, enzyme and inhibitor were preincubated at 23 degrees Celsius for periods of time varying from 0–30 minutes. Following preincubation, the mixtures were diluted, and the residual enzymatic activity was measured in a standard indirect chromogenic assay. For each enzyme, the concentrations of enzyme and inhibitor and the times of preincubation were chosen to yield several data points for which the residual enzymatic activity varied between 20% and 80% of the initial activity. Data were analyzed by plotting the natural logarithm of the ratio (residual activity/initial activity) versus time of preincubation and measuring the resulting slopes. Division of this slope by –[I] yielded the second order rate constants shown.

plasminogen activator inhibitor, type 1 (PAI-1), sequence (P05121 24-402 limits assumed): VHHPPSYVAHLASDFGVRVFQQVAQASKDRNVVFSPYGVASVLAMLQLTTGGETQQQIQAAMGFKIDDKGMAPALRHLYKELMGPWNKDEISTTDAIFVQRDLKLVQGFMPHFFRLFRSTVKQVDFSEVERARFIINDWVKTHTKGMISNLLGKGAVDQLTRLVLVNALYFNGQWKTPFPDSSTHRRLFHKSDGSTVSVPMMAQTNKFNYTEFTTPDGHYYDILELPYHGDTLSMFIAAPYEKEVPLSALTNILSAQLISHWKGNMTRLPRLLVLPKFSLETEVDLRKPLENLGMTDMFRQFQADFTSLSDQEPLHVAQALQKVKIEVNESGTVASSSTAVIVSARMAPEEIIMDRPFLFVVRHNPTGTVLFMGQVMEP

| Second Order Rate Constant for inhibition by PAI-1 [M⁻¹ s⁻¹] | Binder |
| --- | --- |
| 1.8e+06 | t-PA/R275E, single-chain form (enzyme, Noncleavable single-chain enzyme, secreted from COS-1 cells only as a single chain) SYQVICRDEKTQMIYQQHQSWLRPVLRSNRVEYCWCNSGRAQCHSVPVKSCSEPRCFNGGTCQQALYFSDFVCQCPEGFAGKCCEIDTRATCYEDQGISYRGTWSTAESGAECTNWNSSALAQKPYSGRRPDAIRLGLGNHNYCRNPDRDSKPWCYVFKAGKYSSEFCSTPACSEGNSDCYFGNGSAYRGTHSLTESGASCLPWNSMILIGKVYTAQNPSAQALGLGKHNYCRNPDGDAKPWCHVLKNRRLTWEYCDVPSCSTCGLRQYSQPQFEIKGGLFADIASHPWQAAIFAKHRRSPGERFLCGGILISSCWILSAAHCFQERFPPHHLTVILGRTYRVVPGEEEQKFEVEKYIVHKEFDDDTYDNDIALLQLKSDSSRCAQESSVVRTVCLPPADLQLPDWTECELSGYGKHEALSPFYSERLKEAHVRLYPSSRCTSQHLLNRTVTDNMLCAGDTRSGGPQANLHDACQGDSGGPLVCLNDGRMTLVGIISWGLGCGQKDVPGVYTKVTNYLDWIRDNMRP |
| 210000 | t-PA/R275E,H417E, single-chain form (enzyme) SYQVICRDEKTQMIYQQHQSWLRPVLRSNRVEYCWCNSGRAQCHSVPVKSCSEPRCFNGGTCQQALYFSDFVCQCPEGFAGKCCEIDTRATCYEDQGISYRGTWSTAESGAECTNWNSSALAQKPYSGRRPDAIRLGLGNHNYCRNPDRDSKPWCYVFKAGKYSSEFCSTPACSEGNSDCYFGNGSAYRGTHSLTESGASCLPWNSMILIGKVYTAQNPSAQALGLGKHNYCRNPDGDAKPWCHVLKNRRLTWEYCDVPSCSTCGLRQYSQPQFEIKGGLFADIASHPWQAAIFAKHRRSPGERFLCGGILISSCWILSAAHCFQERFPPHHLTVILGRTYRVVPGEEEQKFEVEKYIVHKEFDDDTYDNDIALLQLKSDSSRCAQESSVVRTVCLPPADLQLPDWTECELSGYGKEEALSPFYSERLKEAHVRLYPSSRCTSQHLLNRTVTDNMLCAGDTRSGGPQANLHDACQGDSGGPLVCLNDGRMTLVGIISWGLGCGQKDVPGVYTKVTNYLDWIRDNMRP |
| 150000 | t-PA/R275E,H417D, single-chain form (enzyme) SYQVICRDEKTQMIYQQHQSWLRPVLRSNRVEYCWCNSGRAQCHSVPVKSCSEPRCFNGGTCQQALYFSDFVCQCPEGFAGKCCEIDTRATCYEDQGISYRGTWSTAESGAECTNWNSSALAQKPYSGRRPDAIRLGLGNHNYCRNPDRDSKPWCYVFKAGKYSSEFCSTPACSEGNSDCYFGNGSAYRGTHSLTESGASCLPWNSMILIGKVYTAQNPSAQALGLGKHNYCRNPDGDAKPWCHVLKNRRLTWEYCDVPSCSTCGLRQYSQPQFEIKGGLFADIASHPWQAAIFAKHRRSPGERFLCGGILISSCWILSAAHCFQERFPPHHLTVILGRTYRVVPGEEEQKFEVEKYIVHKEFDDDTYDNDIALLQLKSDSSRCAQESSVVRTVCLPPADLQLPDWTECELSGYGKDEALSPFYSERLKEAHVRLYPSSRCTSQHLLNRTVTDNMLCAGDTRSGGPQANLHDACQGDSGGPLVCLNDGRMTLVGIISWGLGCGQKDVPGVYTKVTNYLDWIRDNMRP |
